The text below walks through data of patent KR20150063728A (dated 2015).

Test [1] addresses T1, 인간 VEGF-C 폴리펩타이드 (Human VEGF-C; R&D systems; Accession # P49767) (human, UniProt P49767 103-227).
T1 construct: Bought; also called hVEGF-C
T1 sequence (looked up): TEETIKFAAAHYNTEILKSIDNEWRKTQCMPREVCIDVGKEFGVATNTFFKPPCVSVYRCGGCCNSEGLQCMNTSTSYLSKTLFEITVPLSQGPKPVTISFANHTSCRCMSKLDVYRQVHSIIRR
Kind of test: ELISA, coated human VEGF-C, scFv detected with anti-HA-HRP; 50% binding concentration (Kd). (An ELISA detects its analyte on a solid surface through an enzyme-linked reagent.)

The target of test [2] is T2, FLAG-Tagging 된 hVEGF-C (Accession # P49767) (human, UniProt P49767 103-227, limits assumed).
T2 construct: also called FLAG-Tagging 된 VEGF-C; not shown: FLAG tag
T2 sequence (looked up): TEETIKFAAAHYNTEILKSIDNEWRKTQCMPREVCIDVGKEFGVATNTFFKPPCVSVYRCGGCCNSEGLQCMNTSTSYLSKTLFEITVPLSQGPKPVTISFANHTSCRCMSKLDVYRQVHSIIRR
In words: competitive ELISA: scFv inhibits FLAG-hVEGF-C binding to coated hVEGR-R3-Fc.

In general, Kd refers to the constant that tells how readily two partners part at equilibrium. Read a low Kd as tighter binding. In general, IC50 refers to the concentration that gives 50% inhibition.

B1: SAIT-VEGFC-AB-4A2 (scFv 형태의 항-VEGF-C 항체) (scFv, V domains shown)
VH: EVQLLESGGGLVQPGGSLRLSCAASGFTFSSYDMSWVRQAPGKGLEWVSAISYDNGSTYYADSVKGRFTISRDNSKNTLYLQMNSLRAEDTAVYYCARDPYLARLNTFDYWGQGTLVTVSS
VL: QSVLTQPPSASGTPGQRVTISCSGSSSNIGSNNVSWYQQLPGTAPKLLIYYNSHRPSGVPDRFSGSKSGTSASLAISGLRSEDEADYYCATWDSSLNGYVFGGGTKLT
notes: Tested as library scFv (Ni-NTA purified, anti-HA detection)
As to B1, in test [1], the affinity, expressed as Kd, was 26.2 nM. In addition, the IC50 in test [2] turned out to be 33.4 nM.
